Patent US20220213198A1, “METHOD OF TREATMENT” (The Council of the Queensland Institute of Medical Research, priority 2019, published 2022)

How the values were obtained:
[1] = test system: B16F10 melanoma cells; experiment: B16F10 experimental lung metastasis model; assay type: in vivo, mouse
Method: FIG. 2. […] (A) The schematic and timeline of expanding MAIT cells from splenocytes derived from C57BL/6 WT mice with IL-2 and 5-OP-RU, for sorting and adoptive transfer into tumor-bearing mice. (B, C) Groups of WT or MR1^−/− or Rag2cγ^−/− mice (n=5-6/group) were injected i.v. with (B) 1×10^5 or (C) 1×10^4 B16F10 melanoma cells. In some groups, sorted MAIT or T conventional cells (cT) (non-MAIT αβ^+ T cells) (2×10^5 cells/mouse) from C57BL/6 (B) WT or (C) TCRδ^−/− mice were i.v. injected into the indicated groups of mice one day before tumor inoculation. (C) One group of mice received i.v injection of media alone as a control. (B, C) On day 14 relative to tumor cell inoculation, lungs were harvested and the metastatic burden was quantified by counting colonies on the lung surface. Data presented as mean±SEM. (D) B16F10 or LWT1 melanoma cells were stimulated in vitro with DMSO or 5-OP-RU (100 nM) for 4 hours before cell surface MR1 expression was determined by flow cytometry. Groups of C57BL/6 WT or MR1^−/− mice (n=5-6/group) were i.v. injected with (E) 1×10^5 B16F10 or (F) 5×10^5 LWT1 cells melanoma cells pulsed with DMSO or 5-OP-RU (100 nM, 4 hours). Fourteen days later relative to tumor cell inoculation, lungs were harvested and the metastatic burden was quantified by counting colonies on the lung surface. Data presented as mean±SEM. Experiments performed once for (B, C, F) and three times for (D, E) with one representative experiment shown. Significant differences between groups as indicated by crossbars were determined using a one-way ANOVA followed by Tukey's post-hoc test (B, E, F), *p<0.05, **p<0.01, ****p<0.0001
FIG. 5. […] (A) Generation of three independent B16F10 cell lines knocked out for MR1 using three different MR1 sgRNA. […] Empty vector transfected B16F10 cells were used as a positive control. (B, C) Groups of C57BL/6 WT, MR1^−/− or Rag2cγ^−/− mice (n=5-6/group) were i.v. injected with either (B) 1×10^5 B16F10 vector control cells or the indicated clone of B16F10 cells lacking MR1 (sgR1, sgR2, sgR3) or (C) 1×10^4 B16F10-MR1^KO cells (sgR3 clone). On day 14 relative to tumor cell inoculation, lungs were harvested and the metastatic burden was quantified by counting colonies on the lung surface. Data presented as mean±SEM. (D) Re-expression of GFP or GFP-MR1 expressing vector into B16F10-MR1^KO (sgR3 clone). MR1 surface expressions of these cells stimulated with or without 5-OP-RU were assessed by flow cytometry. (E) Groups of C57BL/6 WT mice (n=6/group) were i.v. injected with 1×10^5 B16F10-MR1^KO (sgR3 clone) transfected with empty GFP-expressing vector or MR1-GFP-expressing vector. (F) Groups of C57BL/6 WT or MR1^−/− mice were i.v. injected with parental B16F10 cells treated with vehicle (dd H2O) or AC-6-FP (10 μM, 18 hours). On day 14 relative to tumor cell injection, lungs were harvested and the metastatic burden was quantified by counting colonies on the lung surface. Data presented as mean±SEM. Experiments performed twice for (A-E) and once for (F). Significant differences between groups as indicated by crossbars were determined by a one-way ANOVA followed by Tukey's post-hoc test (A, F), or a Mann-Whitney test (C, E), *p<0.05, **p<0.01, ****p<0.0001.
FIG. 6. […] Groups of C57BL/6 WT or MR1^−/− mice (n=5-6/group) were i.v. injected with (A, B) 1×10^5 B16F10, (C) 1×10^5 parental B16F10 or 2×10^5 B16F10-MR1^KO (sgR3 clone) melanoma cells and (D) 5×10^5 LWT1 melanoma cells or s.c injected with (E) 1×10^6 MCA1956 fibrosarcoma or (F) 1×10^6 SM1WT1 melanoma cells on day 0.

[2] = test system: MR1 / MAIT cells; conditions: cited from earlier work

Row | Molecule | number of lung metastases ([1]; MR1-/- mice i.v. injected with pre-treated B16F10, vs DMSO-treated, day 14) | number of lung metastases ([1]; WT mice i.v. injected with B16F10 pre-treated 100 nM 4 h, vs DMSO-treated, day 14) | effect on MAIT cell activation ([2]; background statement) | number of lung metastases ([1]; B16F10 tumor-bearing MR1-/- mice, antibody vs cIg) | suppression of B16F10 lung metastases compared with the 26.5 clone ([1]; WT mice, 250 μg/mouse i.p.) | suppression of B16F10 lung metastases, three vs four doses ([1]; WT mice, 250 μg/mouse i.p., days -1, 0, 3 vs days -1, 0, 3 and 7) | B16F10-MR1 KO (sgR3) lung metastases numbers ([1]; WT mice, antibody vs cIg, days -1, 0 and 3) | blocking of MAIT cell interaction with MR1 ([2]; stated as known)
1 | CC(=O)C=Nc1c(NC[C@H](O)[C@H](O)[C@H](O)CO)[nH]c(=O)[nH]c1=O [5-OP-RU] | this increase was lost | significantly increased | one of the most potent stimulatory MAIT cell antigens |  |  |  |  | 
2 | 8F2.F9: anti-MR1 blocking antibody from hybridoma clone 8F2.F9, IgG1 isotype; heavy chain SEQ ID NO: 14, light chain SEQ ID NO: 18 (antibody, listed as Mus musculus, V domains shown) VH: MKFSWVIFFLMAVVTGVNSEVQLQQSVAELVRPGASVKLSCTASGFNIKNTYMHWVKKRPELGLEWIGRIDPANGNTNFAPKFQGKATITADTSSNTAYLQLSSLTSEDTAIYYCPRGSGNYYFDYWGQGTTLTVSS VL: MSSAQFLGLLLLCFQGTRCDIQMTQTTSSLSASLGDRVTISCRASQDISNYLNWYQQKPDGPVKLLIYYTSRLHSGVPSRFSGSGSGTDYSLTINNLAQEDIATYFCQQGNTLPYTFGGGTKLEIK |  |  |  | no further decrease | superior | equivalently reduced | not reduced | block MAIT cells from interacting with MR1
